The record followed here is PMC1424673.

The target in this data set is T1, Irr (Bradyrhizobium japonicum, UniProt O85719 1-163).
T1 sequence: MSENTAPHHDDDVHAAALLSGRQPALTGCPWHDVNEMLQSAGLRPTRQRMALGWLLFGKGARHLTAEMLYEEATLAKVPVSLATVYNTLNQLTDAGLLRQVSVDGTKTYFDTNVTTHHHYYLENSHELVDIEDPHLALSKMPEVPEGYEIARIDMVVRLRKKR
Description: EMSA. (Mobility shift assays separate free from complexed probe on a gel.)

B1: bll5796 ICE-like probe (dsDNA)
DNA 1: CAGGAATTCGATAGCTTAGAACGCTTCTATGCCGACCTC
DNA 2: GTCGAGGTCGGCATAGAAGCGTTCTAAGCTATCGAATTC
Consider B1, for which the binding result is “binds”.

B2: blr3904 ICE-like probe (dsDNA)
DNA 1: CAGGAATTCGATACTTTAGAACCGTTTGAAACTGACCTC
DNA 2: GTCGAGGTCAGTTTCAAACGGTTCTAAAGTATCGAATTC
In the case of B2, the binding result is “binds”.

B3: non-specific pSK control (dsDNA)
DNA 1: CAGGAATTCGATATCAAGCTTATCGATACCGTCGACCTC
DNA 2: GTCGAGGTCGACGGTATCGATAAGCTTGATATCGAATTC
As to B3, the binding result is reported as “no binding”.
